Measured values published in article PMC4982613.

Assays:
Experiment in all cases: EMSA
[1] = target: NEIL1 DA S207A;S306A (human) (UniProt Q96FI4); conditions: tetrahydrofuran (abasic site analog) at position 14 of strand 1 (N), opposite C; EMSA: 10 pM 32P-DNA, 0-600 nM enzyme, 10% native PAGE, 2 h at 10 mA; binding buffer, salt, pH and temperature not stated; one-site specific binding fit (Prism …)
[2] = target: NEIL1 DE S207E;S306E (human) (UniProt Q96FI4); conditions: tetrahydrofuran (abasic site analog) at position 14 of strand 1 (N), opposite C; EMSA: 10 pM 32P-DNA, 0-600 nM enzyme, 10% native PAGE, 2 h at 10 mA; binding buffer, salt, pH and temperature not stated; one-site specific binding fit (Prism …)
NEIL1 DE S207E;S306E (human), sequence (Q96FI4 whole entry S207E/S306E): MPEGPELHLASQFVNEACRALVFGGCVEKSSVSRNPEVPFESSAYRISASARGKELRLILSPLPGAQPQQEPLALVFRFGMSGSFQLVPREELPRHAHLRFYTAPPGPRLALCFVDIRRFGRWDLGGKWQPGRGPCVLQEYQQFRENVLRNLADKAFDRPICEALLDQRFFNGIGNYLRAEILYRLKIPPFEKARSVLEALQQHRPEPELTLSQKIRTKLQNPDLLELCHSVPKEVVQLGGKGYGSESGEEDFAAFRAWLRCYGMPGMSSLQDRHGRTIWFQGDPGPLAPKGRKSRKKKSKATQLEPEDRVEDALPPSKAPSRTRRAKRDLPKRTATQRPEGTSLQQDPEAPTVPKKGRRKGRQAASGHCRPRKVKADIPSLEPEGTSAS

[3] = target: NEIL1 S207A S207A (human) (UniProt Q96FI4); conditions: multiple complexes (C1+C2+C3) quantified; tetrahydrofuran (abasic site analog) at position 14 of strand 1 (N), opposite C; EMSA: 10 pM 32P-DNA, 0-600 nM enzyme, 10% native PAGE, 2 h at 10 mA; binding buffer, salt, pH and temperature not stated; one-site specific binding fit (Prism …)
NEIL1 S207A S207A (human), sequence (Q96FI4 whole entry S207A): as the sequence (Q96FI4 whole entry S207E/S306E) above, with E207A, E306S counted along it

[4] = target: NEIL1 S207E S207E (human) (UniProt Q96FI4); conditions: tetrahydrofuran (abasic site analog) at position 14 of strand 1 (N), opposite C; EMSA: 10 pM 32P-DNA, 0-600 nM enzyme, 10% native PAGE, 2 h at 10 mA; binding buffer, salt, pH and temperature not stated; one-site specific binding fit (Prism …)
NEIL1 S207E S207E (human), sequence (Q96FI4 whole entry S207E): as the sequence (Q96FI4 whole entry S207E/S306E) above, with E306S counted along it

[5] = target: NEIL1 S306A S306A (human) (UniProt Q96FI4); conditions: upper bands may lower Kd; tetrahydrofuran (abasic site analog) at position 14 of strand 1 (N), opposite C; EMSA: 10 pM 32P-DNA, 0-600 nM enzyme, 10% native PAGE, 2 h at 10 mA; binding buffer, salt, pH and temperature not stated; one-site specific binding fit (Prism …)
NEIL1 S306A S306A (human), sequence (Q96FI4 whole entry S306A): as the sequence (Q96FI4 whole entry S207E/S306E) above, with E207S, E306A counted along it

[6] = target: NEIL1 S306E S306E (human) (UniProt Q96FI4); conditions: tetrahydrofuran (abasic site analog) at position 14 of strand 1 (N), opposite C; EMSA: 10 pM 32P-DNA, 0-600 nM enzyme, 10% native PAGE, 2 h at 10 mA; binding buffer, salt, pH and temperature not stated; one-site specific binding fit (Prism …)
NEIL1 S306E S306E (human), sequence (Q96FI4 whole entry S306E): as the sequence (Q96FI4 whole entry S207E/S306E) above, with E207S counted along it

NEIL1 S61A S61A (human) = NEIL1 S61A S61A (human) (UniProt Q96FI4); conditions: tetrahydrofuran (abasic site analog) at position 14 of strand 1 (N), opposite C; EMSA: 10 pM 32P-DNA, 0-600 nM enzyme, 10% native PAGE, 2 h at 10 mA; binding buffer, salt, pH and temperature not stated; one-site specific binding fit (Prism …)
NEIL1 S61A S61A (human), sequence (Q96FI4 whole entry S61A): as the sequence (Q96FI4 whole entry S207E/S306E) above, with S61A, E207S, E306S counted along it

NEIL1 S61E S61E (human) = NEIL1 S61E S61E (human) (UniProt Q96FI4); conditions: tetrahydrofuran (abasic site analog) at position 14 of strand 1 (N), opposite C; EMSA: 10 pM 32P-DNA, 0-600 nM enzyme, 10% native PAGE, 2 h at 10 mA; binding buffer, salt, pH and temperature not stated; one-site specific binding fit (Prism …)
NEIL1 S61E S61E (human), sequence (Q96FI4 whole entry S61E): as the sequence (Q96FI4 whole entry S207E/S306E) above, with S61E, E207S, E306S counted along it

[7] = target: NEIL1 TA S207A;S306A;S61A (human) (UniProt Q96FI4); conditions: tetrahydrofuran (abasic site analog) at position 14 of strand 1 (N), opposite C; EMSA: 10 pM 32P-DNA, 0-600 nM enzyme, 10% native PAGE, 2 h at 10 mA; binding buffer, salt, pH and temperature not stated; one-site specific binding fit (Prism …)
NEIL1 TA S207A;S306A;S61A (human), sequence (Q96FI4 whole entry S61A/S207A/S306A): as the sequence (Q96FI4 whole entry S207E/S306E) above, with S61A, E207A, E306A counted along it

[8] = target: NEIL1 TE S207E;S306E;S61E (human) (UniProt Q96FI4); conditions: upper bands may lower Kd; tetrahydrofuran (abasic site analog) at position 14 of strand 1 (N), opposite C; EMSA: 10 pM 32P-DNA, 0-600 nM enzyme, 10% native PAGE, 2 h at 10 mA; binding buffer, salt, pH and temperature not stated; one-site specific binding fit (Prism …)
NEIL1 TE S207E;S306E;S61E (human), sequence (Q96FI4 whole entry S61E/S207E/S306E): as the sequence (Q96FI4 whole entry S207E/S306E) above, with S61E counted along it

NEIL1 WT (human) = NEIL1 WT (human) (UniProt Q96FI4); conditions: tetrahydrofuran (abasic site analog) at position 14 of strand 1 (N), opposite C; EMSA: 10 pM 32P-DNA, 0-600 nM enzyme, 10% native PAGE, 2 h at 10 mA; binding buffer, salt, pH and temperature not stated; one-site specific binding fit (Prism …)
NEIL1 WT (human), sequence (Q96FI4 whole entry): as the sequence (Q96FI4 whole entry S207E/S306E) above, with E207S, E306S counted along it

NEIL1 DA S207A;S306A (human), sequence (Q96FI4 whole entry S207A/S306A): as the sequence (Q96FI4 whole entry S207E/S306E) above, with E207A, E306A counted along it

## TGTCAATAGCAAGNGGAGAAGTCAATCGTGAGTCT / AGACTCACGATTGACTTCTCCCCTTGCTATTGACA [35-mer Furan:C duplex]
[1]
  Kd: 0.0108 µM
[2]
  Kd: 0.015 µM
[3]
  Kd: 0.0032 µM
[4]
  Kd: 0.0045 µM
[5]
  Kd: 0.0023 µM
[6]
  Kd: 0.0078 µM
NEIL1 S61A S61A (human)
  Kd: 0.0162 µM
NEIL1 S61E S61E (human)
  Kd: 0.0196 µM
[7]
  Kd: 0.0132 µM
[8]
  Kd: 0.0013 µM
NEIL1 WT (human)
  Kd: 0.023 µM
